From the DeepSol protein solubility set

experiment: soluble on expression in E. coli; label from the status in PepcDB or PDB records

Sequence	soluble on expression in E. coli
GPGSMSQEGGKSEPDANEKEQRNQKLRLGLEAMFCAQEIPSEKRTDIESDGEEVPPSITRDEDRYRQVAEAILRIDTKSKIIEINNIRLFSVAEIELDKLTECTSLSLRKNLLHDLIPFPEDLADRLDELDLFDNKIRKLNDFFETVTVPGDPPTTKTLPNAYKCLTKLDLSYNQIREIGGLDSIGGTLRELYLVENKIKEVKNLDSLVNLELLELGGNRLRAIGSGLEKLTKLKQLWLGKNKISSIGTALHKLVSLEILSLQANRITSVDAENFLGAKANPNLREVYLSENGLTSVGNVRHLSTIKIIDFSFNSICSIDAEEINPQTMPKLEEFWLTDGNIADWEEVGKLSGFTSTLKTVYLERNPIEEDKRYRDKVYMYLPFLVQIDSWPIVNKGNLEADRKRKA	not soluble
GPGSMTSTVTAVNQTQSLAAIRNFVRASVSCITYARGLCSDNAYEQRPFLGLPLRQLIPSTTESITISEWIEKGAFDALNRNYLKEMSLCVYDAACHELLESYCFGFNYTGDGERAQMTLNASQTIADGSKTTAVSQSSGGAVGIPAYRKRRCTKQEVQHLLTSILERLMDVVESLPPLLSERVLTMRLTYYDAVTPASYEPPCFAPASEHMARLYQAEVKHHVNIGSMDTSHHLFSVAIRHPLLQQIHRQMTGRTTSAVATKT	not soluble
GPGSMTSVETRIQALVQRYTLMENNINKLRKALASLGEGQQNANTTPRNEATAVAHHRDPCDLKELQPCPQDTPEVAALRRWCIEHSLTTAVFRWVPSDYYQHTLQWRRDELAAPSVHHLCKSILMENTHCTNKDCGVRENSRYYLIVYPYTEKFDAEMVMRHVKGLNEGLGKKKFNFRLAAPDVALQLTGFGHGAVAPFGTPTEIPVILSDKILQLTPAVFWMGGGHVDCKVRVDVEQFMEVIKPIVASVTTPLSAEELGQLVD	soluble
GPGSMWFGTKNQRKAPQIPFPKRNKTKQRRASRRVRARVRTGNKPEHAIGGTGCASSRMRRGLDGSNTAAPGCDVSSHLSTPVHRPLRCAQPLFVFKSTSLRASLRNTCHHARHRARPYAHGSVSPPLSPSLAYFPQRSKGSRTPAYRWDCTVTRRSWSAHGSASTLVCARVRRSAPFTIGRANDRQRSAAEGDDARTPAHLTTLSTRSQQPKQAKQNTGSSMNSAGTGAPAKAAGVSASSLSMPKHKLVLLGDQSVGKTSIITRFMYDTFDQQYQPTIGIDFFSKTVHLDDDRDVRLHLWDTAGQERFHSLIPSYIRNSAATVVVYDITSRPTFFSAFKWIDEVRSESGADVVIMLVGNKVDQASERREVSAEEAMKKASECSVLFMEVSAKHGTNIKHMFRQVAAALPAPASTGGGAGVTGATSSSAGGVGAAGASGSGASAPGISAGQFGGIVRSPFLITPSAMQAASNGTGGAGEADGANPNAQGGRGGACC	not soluble
GPGSMWVCGEAVLMRALNLLHARVRRCMRFSCRIPPQYCECPCRRMRVCPLRRDVSLIVLLFGLTPTTFSFSATSHDASRTKATRTHTHTHTPLFPARPMGSPLIAVIGPNPAFQKTLALDELRVDEVNRAATVHSYTGGKGTNFCRASACCKESPHFCRTTLHTFVGGKTGERVIDLLHQEGIAVYPVTVPAETRTCITCLDTQNSTMTELIEPSAAVPDDAAKDMDRALLKALEHAGGMAIMGSLPDGSSPDLYTRWTEMAAAAQKPVLIDAVKGIEASLKVPGVHSILKVNMRELNKLTGQSTPESAFEYAMQMWTVRVLAVTDGPRSAYIQERGQPLQVVHIPKVDGVVSPLGAGDTADAIFLAKYIHGTTPVEAFRLALAAASANCLQKEAGVFAQHEMRRIADGITIGSSRPHSSSNTRA	not soluble
GPHSLRYFVTAVSRPGLGEPRFIAVGYVDDTQFVRFDSDADNPRFEPRAPWMEQEGPEYWEEQTQRAKSDEQWFRVSLRTAQRYYNQSKGGSHTFQRMFGCDVGSDWRLLRGYQQFAYDGRDYIALNEDLKTWTAADTAALITRRKWEQAGDAEYYRAYLEGECVEWLRRYLELGNETLLRTDSPKAHVTYHPRSQVDVTLRCWALGFYPADITLTWQLNGEDLTQDMELVETRPAGDGTFQKWAAVVVPLGKEQNYTCHVHHKGLPEPLTLRWKLPPSTVSN	soluble
GPHSLRYFVTAVSRPGLGEPRFISVGYVDNTEFVRFDSDAENPRYEPRARWMEQEGPEYWERETQKAKGNEQSFRVDLRTLLGYYNQSKGGSHTIQVISGCEVGSDGRLLRGYQQYAYDGCDYIALNEDLKTWTAADMAALITKHKWEQAGEAERLRAYLEGTCVEWLRRYLKNGNATLLRTDSPKAHVTHHSRPEDKVTLRCWALGFYPADITLTWQLNGEELIQDMELVETRPAGDGTFQKWASVVVPLGKEQYYTCHVYHQGLPEPLTLRWEPPPST	soluble
